Measured values reported in patent US20200199244A1 (published 2020).

Target: human CD40 (human, UniProt P25942 21-277)
Experiment: cell-based or functional assay

ICAM-1 Cell Assay EC50 (nM), 10% bovine serum [nM] | ICAM-1 Cell Assay EC50 (nM), 10% human serum [nM] | Binder
39.3 | 74.2 | DMS0680 DOM7h-11-90-(G4S)3-BMS3h-56-258 (bispecific antibody) DIQMTQSPSSLSASVGDRVTITCRASRPIGTMLSWYQQKPGKAPKLLILAFSRLQSGVPSRFSGSGSGTDFTLTISNLQPEDFATYYCAQAGTHPTTFGQGTKVEIKRGGGGSGGGGSGGGGSEVQLLESGGGLVQPGGSLRLSCAASGFTFRDYEMWWVRQAPGKGLERVSAINPQGTRTYYADSVKGRFTISRDNSKNTLYLQMNSLRAEDTAVYYCAKLPFYFHEWGQGTLVTVSS
21.7 | 39.2 | DMS0679 DOM7h-11-90-G4S-BMS3h-56-258 (bispecific antibody) DIQMTQSPSSLSASVGDRVTITCRASRPIGTMLSWYQQKPGKAPKLLILAFSRLQSGVPSRFSGSGSGTDFTLTISNLQPEDFATYYCAQAGTHPTTFGQGTKVEIKRGGGGSEVQLLESGGGLVQPGGSLRLSCAASGFTFRDYEMWWVRQAPGKGLERVSAINPQGTRTYYADSVKGRFTISRDNSKNTLYLQMNSLRAEDTAVYYCAKLPFYFHEWGQGTLVTVSS
43.6 | 53.3 | DMS0681 DOM7h-11-90-(G4S)5-BMS3h-56-258 (bispecific antibody) DIQMTQSPSSLSASVGDRVTITCRASRPIGTMLSWYQQKPGKAPKLLILAFSRLQSGVPSRFSGSGSGTDFTLTISNLQPEDFATYYCAQAGTHPTTFGQGTKVEIKRGGGGSGGGGSGGGGSGGGGSGGGGSEVQLLESGGGLVQPGGSLRLSCAASGFTFRDYEMWWVRQAPGKGLERVSAINPQGTRTYYADSVKGRFTISRDNSKNTLYLQMNSLRAEDTAVYYCAKLPFYFHEWGQGTLVTVSS
21.7 | 20.4 | DMS0677 DOM7h-11-90-TVA-BMS3h-56-258 (bispecific antibody) DIQMTQSPSSLSASVGDRVTITCRASRPIGTMLSWYQQKPGKAPKLLILAFSRLQSGVPSRFSGSGSGTDFTLTISNLQPEDFATYYCAQAGTHPTTFGQGTKVEIKRTVAEVQLLESGGGLVQPGGSLRLSCAASGFTFRDYEMWWVRQAPGKGLERVSAINPQGTRTYYADSVKGRFTISRDNSKNTLYLQMNSLRAEDTAVYYCAKLPFYFHEWGQGTLVTVSS
32.4 | 50.9 | DMS0683 BMS3h-56-258-ASTSGPS-DOM7h-11-90 (bispecific antibody) EVQLLESGGGLVQPGGSLRLSCAASGFTFRDYEMWWVRQAPGKGLERVSAINPQGTRTYYADSVKGRFTISRDNSKNTLYLQMNSLRAEDTAVYYCAKLPFYFHEWGQGTLVTVSSASTSGPSDIQMTQSPSSLSASVGDRVTITCRASRPIGTMLSWYQQKPGKAPKLLILAFSRLQSGVPSRFSGSGSGTDFTLTISNLQPEDFATYYCAQAGTHPTTFGQGTKVEIKR
37.9 | 74.3 | DMS0684 BMS3h-56-258-G4S-DOM7h-11-90 (bispecific antibody) EVQLLESGGGLVQPGGSLRLSCAASGFTFRDYEMWWVRQAPGKGLERVSAINPQGTRTYYADSVKGRFTISRDNSKNTLYLQMNSLRAEDTAVYYCAKLPFYFHEWGQGTLVTVSSGGGGSDIQMTQSPSSLSASVGDRVTITCRASRPIGTMLSWYQQKPGKAPKLLILAFSRLQSGVPSRFSGSGSGTDFTLTISNLQPEDFATYYCAQAGTHPTTFGQGTKVEIKR
10.2 | 94.8 | DMS0682 BMS3h-56-258-TVA-DOM7h-11-90 (bispecific antibody) EVQLLESGGGLVQPGGSLRLSCAASGFTFRDYEMWWVRQAPGKGLERVSAINPQGTRTYYADSVKGRFTISRDNSKNTLYLQMNSLRAEDTAVYYCAKLPFYFHEWGQGTLVTVSSTVADIQMTQSPSSLSASVGDRVTITCRASRPIGTMLSWYQQKPGKAPKLLILAFSRLQSGVPSRFSGSGSGTDFTLTISNLQPEDFATYYCAQAGTHPTTFGQGTKVEIKR
